Measurements: publication PMC5095173, “Disulfide-activated protein kinase G Iα regulates cardiac diastolic relaxation and fine-tunes the Frank–Starling response” (Nature Communications, 2016)

B1: Stk10 pS13 (protein, UniProt E9PTG8 1-967, looked up)
Serine/threonine-protein …: MAFANFRRILRLSTFEKRKSREYEHVRRDLDPNDVWEILGELGDGAFGKVYKAKNKETGALAAAKVIETKSEEELEDYIVEIEILATCDHPYIVKLLGAYYYDGKLWIMIEFCPGGAVDAIMLELDRGLTEPQIQVVCRQMLEALNFLHGKRIIHRDLKAGNVLMTLEGDIRLADFGVSAKNLKTLQKRDSFIGTPYWMAPEVVLCETMKDAPYDYKADIWSLGITLIEMAQIEPPHHELNPMRVLLKIAKSDPPTLLTPSKWSTEFRDFLKIALDKNPETRPSAAQLLQHPFVSTVTSNKALRELVAEAKAEVMEEIEDGKEDGSEKDAVSAVPPPVNHTQDSSANGTQPSLNSDKLLQDSSTPLPPSQPQEPVNGPCNQPSGDGSPQNTSPADEVSKNDNGLKVPVPLRKSRPLSVDARIQVTEEKQITDQAENPSSAASKPPKVNQSRPNSSALETLGVETLANGGLELPGSVTPNHSKRASDCSNLSTSESMDYGTSLSADLSLNKETGSLSLKGSKLHNKTLKRTRRFVVDGVEVSITTSKIISEDEKKDEEMRFLRRQELRELRLLQKEEHRNQTQLSTKHELQLEQMHRRFEQEINAKKKFYDVELENLERQQKQQVEKMEQDHSVRRREEAKRIRLEQDRDYARFQEQLKQMKKEVKRSIEKALRKQRQESMRMGQDSHTQKKQRLDRDFVAKQKEDLELAMKKLTAENRREICDKERDCLNKKQELLRDREAALWEMEEHQLQERHQLVKQQLKDQYFLQRHDLLRKHEKEREQMQRYNQRMMEQLKVRQQQEKARLPKIQRSDGKTRMAMYKKSLHINGAGSASEQREKVKQFSQQEEKRQKAERLQQQQKHENQMRDMVAQCESNMNELQQLQNEKCHLLVEHETQKLKALDESHNQSLKEWRDKLRPRKKALEEDLNQKKREQEMFFRLSEEAETRPTTPNRASKFFPYSSGDAS
modifications: phosphorylated at S13
B2: Ppp1r2 pT21 (protein, UniProt P50411 2-205, looked up)
Protein phosphatase inhibitor …: AASTASHRPIKGILKNKTSTTSSVVASAEQPRRTVEEELSKKSQKWDEMNILATYHPADKDYGLMKIDEPDTPYHNMIGDDEDVCSDSEGNEVMTPEILAKKLAAAEGSEPKFRTREQESSGEEDNDLSPEEREKKRQFEMKRKLHYNEGLNIKLARQLISKDLHDDDEDEEMSETADADSMNIEESNQGSTAGDHLQHKSQSS
modifications: phosphorylated at T21
B3: Ndrg2 pS332 (protein, UniProt Q8VBU2 2-371, looked up)
Protein NDRG2: AELQEVQITEEKPLLPGQTPEAAKEAELAARILLDQGQTHSVETPYGSVTFTVYGTPKPKRPAIFTYHDVGLNYKSCFQPLFQFGDMQEIIQNFVRVHVDAPGMEEGAPVFPLGYQYPSQDQLADMIPCILQYLNFSTIIGVGVGAGAYILSRYALNHPDTVEGLVLINIDPNAKGWMDWAAHKLTGLTSSIPEMILGHLFSQEELSGNSELIQKYRSLITHAPNLENIELYWNSYNNRRDLNFERGGEMTLKCPVMLVVGDQAPHEDAVVECNSKLDPTQTSFLKMADSGGQPQLTQPGKLTEAFKYFVQGMGYMASSCMTRLSRSRTASLTSAASIDGSRSRSRTLSQSSESGTLPSGPPGHTMEVSC
modifications: phosphorylated at S332
B4: Arhgap35 pS1150 (protein, UniProt Q91YM2 1-1499, looked up)
Rho GTPase-activating protein …: MMMARKQDVRIPTYNISVVGLSGTEKEKGQCGIGKSCLCNRFVRPSADEFHLDHTSVLSTSDFGGRVVNNDHFLYWGEVSRSLEDCVECKMHIVEQTEFIDDQTFQPHRSTALQPYIKRAAATKLASAEKLMYFCTDQLGLEQDFEQKQMPDGKLLVDGFLLGIDVSRGMNRNFDDQLKFVSNLYNQLAKTKKPIVVVLTKCDEGVERYIRDAHTFALSKKNLQVVETSARSNVNVDLAFSTLVQLIDKSRGKTKIIPYFEALKQQSQQIATAKDKYEWLVSRIVKNHNENWPSVSRKMQASPEYQDYVYLEGTQKAKKLFLQHIHRLKHEHIERRRKLYLAALPLAFEALIPNLDEVDHLSCIKAKKLLETKPEFLKWFVVLEETPWDATSHIDNMENERIPFDLMDTVPAEQLYETHLEKLRNERKRAEMRRAFKENLETSPFITPGKPWEEARSFIMNEDFYQWLEESVYMDIYGKHQKQIIDRAKEEFQELLLEYSELFYELELDAKPSKEKMGVIQDVLGEEQRFKALQKLQAERDALILKHIHFVYHPTKETCPSCPACVDAKIEHLISSRFIRPSDRNQKNSLSDLNIDRINLVILGKDGLARELANEIRALCTNDDKYVIDGKMYELSLRPIEGNVRLPVNSFQTPTFQPHGCLCLYNSKESLSYVVESIEKSRESTLGRRDNHLVHLPLTLILVNKRGDTSGETLHSLIQQGQQIASKLQCVFLDPASAGIGYGRNINEKQISQVLKGLLDSKRNLNLVSSTASIKDLADVDLRIVMCLMCGDPFSADDVLSPVLQSQTCKSSHCGSSNSVLLELPIGLHKKRIELSVLSYHSSFSIRKSRLVHGYIVFYSAKRKASLAMLRAFLCEVQDIIPIQLVALTDGAIDVLDNDLSREQLTEGEEIAQEIDGRFTSIPCSQPQHKLELFHPFFKDVVEKKNIIEATHMYDNVAEACSTTEEVFNSPRAGSPLCNSNLQDSEEDVEPPSYHLFREDATLPSLSKDHSKFSMELEGNDGLSFIMSNFESKLNNKVPPPVKPKPPVHFDITKDLSYLDQGHREGQRKSMSSSPWMPQDGFDPSDYAEPMDAVVKPRNEEENIYSVPHDSTQGKIITIRNINKAQSNGSGNGSDSEMDTSSLERGRKVSAVSKPVLYRTRCTRLGRFASYRTSFSVGSDDELGPIRKKEEDQASQGYKGDNAVIPYETDEDPRRRNILRSLRRNTKKPKPKPRPSITKATWESNYFGVPLTTVVTPEKPIPIFIERCIEYIEATGLSTEGIYRVSGNKSEMESLQRQFDQDHNLDLAEKDFTVNTVAGAMKSFFSELPDPLVPYSMQIDLVEAHKINDREQKLHALKEVLKKFPKENHEVFKYVISHLNKVSHNNKVNLMTSENLSICFWPTLMRPDFSSMDALTATRSYQTIIELFIQQCPFFFYNRPISEPPGAAPGSPSAMAPTVPFLTSTPATSQPSPPQSPPPTPQSPMQPLLSSQLQAEHTL
modifications: phosphorylated S1150
B5: Ppp1r12a pT697 (protein, UniProt Q10728 1-1032, looked up)
Protein phosphatase 1 …: MKMADAKQKRNEQLKRWIGSETDLEPPVVKRQKTKVKFDDGAVFLAACSSGDTDEVLKLLHRGADINYANVDGLTALHQACIDDNVDMVKFLVENGANINQPDNEGWIPLHAAASCGYLDIAEFLIGQGAHVGAVNSEGDTPLDIAEEEAMEELLQNEVNRQGVDIEAARKEEERIMLRDARQWLNSGHISDVRHAKSGGTALHVAAAKGYTEVLKLLIQAGYDVNIKDYDGWTPLHAAAHWGKEEACRILVDNLCDMETVNKVGQTAFDVADEDILGYLEELQKKQNLLHSEKRDKKSPLIESTANMENNQPQKTFKNKETLIIEPEKNASRIESLEQEKADEEEEGKKDESSCSSEEDEEDDSESEAETDKTKPMASVTNAHTASTQAAPAAVTTPTLSSNQGTPTSPVKKFPTSTTKISPKEEERKDESPASWRLGLRKTGSYGALAEITASKEAQKEKDTAGVIRSASSPRLSSSLDNKEKEKDNKGTRLAYVAPTIPRRLGSTSDIEEKENRESSNLRTSSSYTRRKWEDDLKKNSSINEGSTYHRSCSFGRRQDDLISCSVPSTTSTPTVTSAAGLQKSFLSSTSTTAKTPPGSSPAGTQSSTSNRLWAEDSTEKEKDSAPTAATILVAPTVVSAAASSTTALTTTTAGTLSSTSEVRERRRSYLTPVRDEESESQRKARSRQARQSRRSTQGVTLTDLQEAEKTIGRSRSTRTREQENEEKDKEEKEKQDKEKQEEKKESEVSREDEYKQKYSRTYDETYARYRPVSTSSSSTPSSSSLSTLGSSLYASSQLNRPNSLVGITSAYSRGLTKDNEREGEKKEEEKEGEDKSQPKSIRERRRPREKRRSTGVSFWTQDSDENEQERQSDTEDGSSKRDTQTDSVSRYDSSSTSSSDRYDSLLGRSASYSYLEERKPYGSRLEKDDSTDFKKLYEQILAENEKLKAQLHDTNMELTDLKLQLEKATQRQERFADRSLLEMEKRERRALERRISEMEEELKMLPDLKADNQRLKDENGALIRVISKLSK
modifications: phosphorylated at T697

Key:
[1] = test system: PKGIα (analogue-sensitive M438G), disulfide-activated; assay: Chemical genetic phosphoproteomic screen, disulfide-activated PKGIα M438G versus unactivated control; format: biochemical, human PKGIα; substrates in rat heart homogenate; details: for log2 fold changes: Group 2 (disulfide-activated) vs Group 3 (control); for log2 fold change Disulfide vs Control: control = PKGIα C42S/M438G
Procedure, shortened: (§1)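 Analogue-sensitive human PKGIα mutants (M438G, air-oxidized to disulfide dimer; C42S/M438G, cGMP-activated), expressed in 293-F cells, thiophosphorylate substrates in rat left-ventricle lysate (20 mg ml) using N6-alkylated ATPγS. Thiophosphopeptides are recovered by covalent capture and identified with sites by LC–MS/MS, each compared against an unactivated control.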

[2] = test system: PKGIα (analogue-sensitive C42S/M438G), cGMP-activated; assay: Chemical genetic phosphoproteomic screen, cGMP-activated PKGIα C42S/M438G versus unactivated control; format: biochemical, human PKGIα; substrates in rat heart homogenate; details: for log2 fold changes: Group 1 (cGMP-activated) vs Group 3 (control); for log2 fold change cGMP vs Control: control = PKGIα C42S/M438G
Procedure, shortened: as §1

Molecule | log2 fold changes [1] | log2 fold changes [2] | log2 fold change Disulfide vs Control [1] | log2 fold change cGMP vs Control [2]
B1 | 0.1825 | 0.7023 |  | 
B2 |  |  | 1.627 | 5.158
B3 |  |  | 1.914 | 3.419
B4 | 0.2658 | 0.1001 |  | 
B5 |  |  | 0.1684 | 0.8734
